Here are results for 6 molecules from paper PMC6660772, “Structure of KAP1 tripartite motif identifies molecular interfaces required for retroelement silencing” (Proceedings of the National Academy of Sciences of the …, 2019).

To fix the notation:
B1: KAP1 RING-B-box 1 (RB1; residues 50-200) (domain or fragment, human, UniProt Q13263 50-200, looked up)
chain: SPAGGGAEALELLEHCGVCRERLRPEREPRLLPCLHSACSACLGPAAPAAANSSGDGGAAGDGTVVDCPVCKQQCFSKDIVENYFMRDSGSKAATDAQDANQCCTSCEDNAPATSYCVECSEPLCETCVEAHQRVKYTKDHTVRSTGPAKS
notes: KAP1 (TRIM28), human, UniProt Q13263, residues 50-200 (RING and B-box 1); also called RING-B-box 1 fragment; RING-Box-1 fragment; not shown: His6, N-terminal, cleaved
B2: KAP1 RBCC V114A/Q123A/F125A/K127A (RING domain mutant) (domain or fragment, human, UniProt Q13263 50-413, looked up)
chain: SPAGGGAEALELLEHCGVCRERLRPEREPRLLPCLHSACSACLGPAAPAAANSSGDGGAAGDGTAVDCPVCKQACASADIVENYFMRDSGSKAATDAQDANQCCTSCEDNAPATSYCVECSEPLCETCVEAHQRVKYTKDHTVRSTGPAKSRDGERTVYCNVHKHEPLVLFCESCDTLTCRDCQLNAHKDHQYQFLEDAVRNQRKLLASLVKRLGDKHATLQKSTKEVRSSIRQVSDVQKRVQVDVKMAILQIMKELNKRGRVLVNDAQKVTEGQQERLERQHWTMTKIQKHQEHILRFASWALESDNNTALLLSKKLIYFQLHRALKMIVDPVEPHGEMKFQWDLNAWTKSAEAFGKIVAERP
notes: KAP1 (TRIM28), human, UniProt Q13263, RBCC residues 50-413 with four mutations in the RING domain; also called RBCC with RING domain mutations; source: E. coli BL21 (DE3), purified; not shown: His6, N-terminal, cleaved
B3: KAP1 RBCC N235A/A236D/K238A/D239A/F244A/L245A (B-box 2 mutant) (domain or fragment, human, UniProt Q13263 50-413, looked up)
chain: B2 chain with A65V, A74Q, A76F, A78K, N186A, A187D, K189A, D190A, F195A, L196A
notes: KAP1 (TRIM28), human, UniProt Q13263, RBCC residues 50-413 with six mutations in and next to B-box 2; also called RBCC with the B-box 2 mutations; source: E. coli BL21 (DE3), purified; not shown: His6, N-terminal, cleaved
B4: KAP1 RBCC (residues 50-413), wild type (domain or fragment, human, UniProt Q13263 50-413, looked up)
chain: B2 chain with A65V, A74Q, A76F, A78K
notes: KAP1 (TRIM28), human, UniProt Q13263, residues 50-413 (RING, B-box 1, B-box 2, coiled coil); rows of m3 with m3 give the step in the assay's format; also called KAP1 RBCC motif; KAP1 TRIM; not shown: His6, N-terminal, cleaved
B5: Twin-StrepII-MBP-ZNF93 KRAB (KRAB domain residues 1-71 of ZNF93) (domain or fragment)
chain: not shown
notes: ZNF93, UniProt P35789, KRAB domain residues 1-71; The MBP tag was also required for protein solubility; also called MBP-KRAB; ZNF93 MBP-KRAB; source: E. coli BL21 (DE3), purified (StrepTrap, Superdex 200 SEC); also coexpressed with KAP1 in E. coli and co-purified; not shown: Twin-StrepII, N-terminal, kept; MBP, N-terminal, kept
B6: full-length KAP1 (residues 1-835) (natural protein, human, UniProt Q13263 1-835, looked up)
chain: MAASAAAASAAAASAASGSPGPGEGSAGGEKRSTAPSAAASASASAAASSPAGGGAEALELLEHCGVCRERLRPEREPRLLPCLHSACSACLGPAAPAAANSSGDGGAAGDGTVVDCPVCKQQCFSKDIVENYFMRDSGSKAATDAQDANQCCTSCEDNAPATSYCVECSEPLCETCVEAHQRVKYTKDHTVRSTGPAKSRDGERTVYCNVHKHEPLVLFCESCDTLTCRDCQLNAHKDHQYQFLEDAVRNQRKLLASLVKRLGDKHATLQKSTKEVRSSIRQVSDVQKRVQVDVKMAILQIMKELNKRGRVLVNDAQKVTEGQQERLERQHWTMTKIQKHQEHILRFASWALESDNNTALLLSKKLIYFQLHRALKMIVDPVEPHGEMKFQWDLNAWTKSAEAFGKIVAERPGTNSTGPAPMAPPRAPGPLSKQGSGSSQPMEVQEGYGFGSGDDPYSSAEPHVSGVKRSRSGEGEVSGLMRKVPRVSLERLDLDLTADSQPPVFKVFPGSTTEDYNLIVIERGAAAAATGQPGTAPAGTPGAPPLAGMAIVKEEETEAAIGAPPTATEGPETKPVLMALAEGPGAEGPRLASPSGSTSSGLEVVAPEGTSAPGGGPGTLDDSATICRVCQKPGDLVMCNQCEFCFHLDCHLPALQDVPGEEWSCSLCHVLPDLKEEDGSLSLDGADSTGVVAKLSPANQRKCERVLLALFCHEPCRPLHQLATDSTFSLDQPGGTLDLTLIRARLQEKLSPPYSSPQEFAQDVGRMFKQFNKLTEDKADVQSIIGLQRFFETRMNEAFGDTKFSAVLVEPPPMSLPGAGLSSQELSGGPGDGP
notes: KAP1 (TRIM28), human, UniProt Q13263, full length, residues 1-835; Purified as T4L-RBCC, that is without removal of the His6 tag; a TEV site (ENLYFQG) lies between tag and protein; also called TRIM28; TIF1β; source: also coexpressed with MBP-KRAB in E. coli and co-purified (StrepTrap, Superose 6 SEC); not shown: His6, N-terminal, kept

Substitutions are numbered along the chain they refer to. In names and notes the source's numbering stands.

Data set [1] deals with the molecule itself. Nature of the data set: SEC-MALS; RING-B-box 1 (WT at 33 to 610 µM; B-box 1 mutant); monomer to dimer; Superdex 75 (10/300), 20 mM Hepes pH 8, 0.2 M NaCl, 0.5 mM TCEP, 293 K. For orientation: SEC sorts molecules by how far they enter the pores of the column.
Data set [2] deals with the molecule itself. Nature of the data set: SEC-MALS; KAP1 RBCC at low protein concentration (8.7 µM, 0.35 g/L); monomers to dimer; Superdex 200 (10/300), 20 mM Hepes pH 8, 0.5 M NaCl, 0.5 mM TCEP, 293 K.
Data set [3] deals with B4. Nature of the data set: SPR; Biacore T200, CM5 chip, MBP-KRAB immobilized (~600 RU), KAP1 RBCC flowed over (1:2 dilution series from 34 µM WT, 35 µM mutant), 20 mM Hepes pH 8.0, 0.5 M NaCl, 0.5 mM TCEP, 20 °C; biphasic kinetic model. The conditions noted are these: both partners purified. (In general: SPR reads the build-up and loss of mass on a sensor chip optically.)
Data set [4] concerns the target B5. Nature of the data set: SEC-MALS; full-length KAP1 and ZNF93 MBP-KRAB coexpressed in E. coli and co-purified (StrepTrap, SEC); Superose 6 (10/300), 20 mM Hepes pH 8, 0.5 M NaCl, 0.5 mM TCEP, 293 K; total protein 1.2 g/L. The following applies: both partners purified.
Data set [5] concerns the molecule itself. The description is as above.

B1: the “stoichiometry N” value in data set [1] stood at 2.

Consider B2, for which the binding result in data set [2] was “binds”. On the same count and under the same terms, then B3, with “binds”. As to B4, the “stoichiometry N” value in data set [2] is 2. For the molecule B5, in data set [3], the Kd turned out to be 8 ± 2 nM, the koff came to 0.00027 s⁻¹ and the kon stood at 36000 M⁻¹ s⁻¹. In the case of B6, the “stoichiometry N” value in data set [4] came to 2 KAP1 per KRAB. Moreover, in data set [5], the binding result is “binds”.

For orientation: stoichiometry N means a count of units in the complex or per binding partner. What is called Kd is the free concentration of one partner at which half of the binding sites on the other are occupied at equilibrium, for simple one-to-one binding. Lower therefore signals higher affinity. Usually koff stands for a measure of how fast the partners let go of each other. Low readings indicate slow dissociation, high ones fast dissociation. What is called kon is the second-order rate constant of association.
